Measured values published in PMC2583301.
One block for each substance: values may come before it.

Assays:
[1] = target: H2A refolded in the absence of H2B (Xenopus laevis) (UniProt P06897); experiment: AUC
[2] = target: yNap1 C200A/C249A/C272A labelled with Alexa dye at Cys-414 (yNap1m*) (yeast) (UniProt P25293); experiment: other fluorescence titration
[3] = target: H2A/H2B(T112C) dimer, H2B labelled with Alexa dye (Xenopus laevis) (UniProt P06897); experiment: other fluorescence titration

yeast nucleosome assembly protein 1 (yNap1), wild type, sequence (P25293 whole entry): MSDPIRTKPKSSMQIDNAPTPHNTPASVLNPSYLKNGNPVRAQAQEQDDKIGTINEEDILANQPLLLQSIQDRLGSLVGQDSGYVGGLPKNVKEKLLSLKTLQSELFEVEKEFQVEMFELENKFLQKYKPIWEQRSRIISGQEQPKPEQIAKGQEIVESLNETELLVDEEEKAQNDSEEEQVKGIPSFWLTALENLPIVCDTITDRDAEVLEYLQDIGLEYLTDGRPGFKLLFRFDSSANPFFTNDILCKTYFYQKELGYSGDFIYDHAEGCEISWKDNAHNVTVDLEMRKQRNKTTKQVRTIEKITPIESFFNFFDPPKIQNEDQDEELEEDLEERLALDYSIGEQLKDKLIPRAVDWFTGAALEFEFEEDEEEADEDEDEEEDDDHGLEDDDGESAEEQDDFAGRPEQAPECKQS
yNap1 C200A/C249A/C272A labelled with Alexa dye at Cys-414 (yNap1m*) (yeast), sequence (P25293 whole entry C200A/C249A/C272A): as the sequence (P25293 whole entry) above, with C200A, C249A, C272A counted along it

stoichiometry N [1]: 2
Substance: H2A refolded in the absence of H2B (from UniProt P06897 1-130) (natural protein)

stoichiometry N (H2A/H2B dimer per yNap1 monomer) [2]: 1
Substance: H2A/H2B dimer (major type, wild type) (from UniProt P06897;P02281) (complex)

Kd [2]: 2.1 nM
Substance: Tailless H2A/H2B dimer (from UniProt P06897 15-119) (complex)

Kd [3]: 1.3 nM
Kd app (yNap1 counted as dimer) [3]: 0.7 nM
Substance: yeast nucleosome assembly protein 1 (yNap1), wild type (from UniProt P25293 1-417) (natural protein)
